For the test, the target named is N-terminally flag-tagged Ubr1 (^fUbr1), full length (S. cerevisiae, UniProt P19812 1-1950). The experiment in a line: co-IP.
N-terminally flag-tagged Ubr1 (^fUbr1), full length, sequence (P19812 whole entry): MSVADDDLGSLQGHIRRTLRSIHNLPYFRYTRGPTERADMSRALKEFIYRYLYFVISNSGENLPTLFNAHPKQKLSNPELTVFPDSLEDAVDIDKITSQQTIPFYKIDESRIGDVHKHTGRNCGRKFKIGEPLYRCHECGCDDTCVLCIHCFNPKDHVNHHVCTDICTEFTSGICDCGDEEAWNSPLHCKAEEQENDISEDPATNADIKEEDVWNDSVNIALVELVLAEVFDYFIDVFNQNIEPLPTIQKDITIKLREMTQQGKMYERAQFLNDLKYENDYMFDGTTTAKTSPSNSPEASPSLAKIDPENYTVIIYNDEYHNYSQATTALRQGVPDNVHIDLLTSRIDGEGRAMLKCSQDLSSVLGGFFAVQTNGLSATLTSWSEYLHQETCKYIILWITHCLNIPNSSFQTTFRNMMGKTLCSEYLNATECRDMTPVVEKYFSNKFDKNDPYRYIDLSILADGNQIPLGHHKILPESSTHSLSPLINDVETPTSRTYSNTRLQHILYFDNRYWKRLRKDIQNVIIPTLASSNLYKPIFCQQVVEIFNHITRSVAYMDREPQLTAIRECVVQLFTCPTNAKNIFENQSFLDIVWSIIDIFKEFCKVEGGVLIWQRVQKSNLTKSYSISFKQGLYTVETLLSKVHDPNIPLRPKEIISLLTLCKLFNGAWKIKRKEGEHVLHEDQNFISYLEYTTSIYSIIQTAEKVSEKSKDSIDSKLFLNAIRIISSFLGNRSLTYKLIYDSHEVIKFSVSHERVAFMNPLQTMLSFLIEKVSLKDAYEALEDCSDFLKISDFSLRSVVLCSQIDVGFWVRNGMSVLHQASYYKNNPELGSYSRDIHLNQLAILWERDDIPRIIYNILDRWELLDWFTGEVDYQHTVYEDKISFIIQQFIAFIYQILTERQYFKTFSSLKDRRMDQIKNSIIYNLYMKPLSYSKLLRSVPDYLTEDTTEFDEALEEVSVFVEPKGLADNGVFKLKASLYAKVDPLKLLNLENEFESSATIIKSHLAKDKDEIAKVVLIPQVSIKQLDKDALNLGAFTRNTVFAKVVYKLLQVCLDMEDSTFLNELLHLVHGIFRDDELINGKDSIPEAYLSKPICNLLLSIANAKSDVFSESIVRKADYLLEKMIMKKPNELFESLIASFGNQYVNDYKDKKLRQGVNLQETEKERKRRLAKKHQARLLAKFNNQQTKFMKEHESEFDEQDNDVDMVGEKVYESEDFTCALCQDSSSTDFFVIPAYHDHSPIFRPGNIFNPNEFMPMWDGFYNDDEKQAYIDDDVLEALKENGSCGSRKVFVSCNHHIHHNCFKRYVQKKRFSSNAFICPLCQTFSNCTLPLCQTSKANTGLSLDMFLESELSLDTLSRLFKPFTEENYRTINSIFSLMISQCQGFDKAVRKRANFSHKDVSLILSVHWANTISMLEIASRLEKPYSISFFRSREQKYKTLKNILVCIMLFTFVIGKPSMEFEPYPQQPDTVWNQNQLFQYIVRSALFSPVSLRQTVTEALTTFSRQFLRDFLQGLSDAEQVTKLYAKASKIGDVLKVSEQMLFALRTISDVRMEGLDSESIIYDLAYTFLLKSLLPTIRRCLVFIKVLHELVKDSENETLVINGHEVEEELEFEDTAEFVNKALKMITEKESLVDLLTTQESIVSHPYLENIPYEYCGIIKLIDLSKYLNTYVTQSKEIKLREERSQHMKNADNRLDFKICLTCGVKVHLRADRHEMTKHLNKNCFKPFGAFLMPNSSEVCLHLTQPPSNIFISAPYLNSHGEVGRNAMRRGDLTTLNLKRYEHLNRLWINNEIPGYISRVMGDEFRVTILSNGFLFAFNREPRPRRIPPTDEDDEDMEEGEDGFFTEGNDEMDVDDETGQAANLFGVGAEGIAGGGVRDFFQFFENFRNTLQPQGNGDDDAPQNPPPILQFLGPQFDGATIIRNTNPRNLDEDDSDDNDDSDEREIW

B1: flag-tagged Ufd4 (^fUfd4), purified (enzyme, S. cerevisiae, UniProt P33202 1-1483, looked up)
chain: MSENNSHNLDEHESHSENSDYMMDTQVEDDYDEDGHVQGEYSYYPDEDEDEHMLSSVGSFEADDGEDDDNDYHHEDDSGLLYGYHRTQNGSDEDRNEEEDGLERSHDNNEFGSNPLHLPDILETFAQRLEQRRQTSEGLGQHPVGRTLPEILSMIGGRMERSAESSARNERISKLIENTGNASEDPYIAMESLKELSENILMMNQMVVDRIIPMETLIGNIAAILSDKILREELELQMQACRCMYNLFEVCPESISIAVDEHVIPILQGKLVEISYIDLAEQVLETVEYISRVHGRDILKTGQLSIYVQFFDFLTIHAQRKAIAIVSNACSSIRTDDFKTIVEVLPTLKPIFSNATDQPILTRLVNAMYGICGALHGVDKFETLFSLDLIERIVQLVSIQDTPLENKLKCLDILTVLAMSSDVLSRELREKTDIVDMATRSFQHYSKSPNAGLHETLIYVPNSLLISISRFIVVLFPPEDERILSADKYTGNSDRGVISNQEKFDSLVQCLIPILVEIYTNAADFDVRRYVLIALLRVVSCINNSTAKAINDQLIKLIGSILAQKETASNANGTYSSEAGTLLVGGLSLLDLICKKFSELFFPSIKREGIFDLVKDLSVDFNNIDLKEDGNENISLSDEEGDLHSSIEECDEGDEEYDYEFTDMEIPDSVKPKKISIHIFRTLSLAYIKNKGVNLVNRVLSQMNVEQEAITEELHQIEGVVSILENPSTPDKTEEDWKGIWSVLKKCIFHEDFDVSGFEFTSTGLASSITKRITSSTVSHFILAKSFLEVFEDCIDRFLEILQSALTRLENFSIVDCGLHDGGGVSSLAKEIKIKLVYDGDASKDNIGTDLSSTIVSVHCIASFTSLNEFLRHRMVRMRFLNSLIPNLTSSSTEADREEEENCLDHMRKKNFDFFYDNEKVDMESTVFGVIFNTFVRRNRDLKTLWDDTHTIKFCKSLEGNNRESEAAEEANEGKKLRDFYKKREFAQVDTGSSADILTLLDFLHSCGVKSDSFINSKLSAKLARQLDEPLVVASGALPDWSLFLTRRFPFLFPFDTRMLFLQCTSFGYGRLIQLWKNKSKGSKDLRNDEALQQLGRITRRKLRISRKTIFATGLKILSKYGSSPDVLEIEYQEEAGTGLGPTLEFYSVVSKYFARKSLNMWRCNSYSYRSEMDVDTTDDYITTLLFPEPLNPFSNNEKVIELFGYLGTFVARSLLDNRILDFRFSKVFFELLHRMSTPNVTTVPSDVETCLLMIELVDPLLAKSLKYIVANKDDNMTLESLSLTFTVPGNDDIELIPGGCNKSLNSSNVEEYIHGVIDQILGKGIEKQLKAFIEGFSKVFSYERMLILFPDELVDIFGRVEEDWSMATLYTNLNAEHGYTMDSSIIHDFISIISAFGKHERRLFLQFLTGSPKLPIGGFKSLNPKFTVVLKHAEDGLTADEYLPSVMTCANYLKLPKYTSKDIMRSRLCQAIEEGAGAFLLS
Turning to B1, the binding result is listed as “binds”.

Values taken from PMC3003441 (Nature cell biology, 2010).
